According to US20220153872A1 (MAB LEGEND BIOTECH, published 2022):

Assays:
[1] = target: T1, human Factor XIa, activated form of coagulation factor XI (human, UniProt P03951 19-387; P03951 388-625); assay: ELISA
T1 construct: also called FXIa; human FXIa

[2] = target: T1, human Factor XIa, activated form of …; assay: cell-based or functional assay
human FXII = target: T2, human FXII (human, UniProt P00748 20-615); assay: ELISA, antibody dilution series
T2 sequence (looked up): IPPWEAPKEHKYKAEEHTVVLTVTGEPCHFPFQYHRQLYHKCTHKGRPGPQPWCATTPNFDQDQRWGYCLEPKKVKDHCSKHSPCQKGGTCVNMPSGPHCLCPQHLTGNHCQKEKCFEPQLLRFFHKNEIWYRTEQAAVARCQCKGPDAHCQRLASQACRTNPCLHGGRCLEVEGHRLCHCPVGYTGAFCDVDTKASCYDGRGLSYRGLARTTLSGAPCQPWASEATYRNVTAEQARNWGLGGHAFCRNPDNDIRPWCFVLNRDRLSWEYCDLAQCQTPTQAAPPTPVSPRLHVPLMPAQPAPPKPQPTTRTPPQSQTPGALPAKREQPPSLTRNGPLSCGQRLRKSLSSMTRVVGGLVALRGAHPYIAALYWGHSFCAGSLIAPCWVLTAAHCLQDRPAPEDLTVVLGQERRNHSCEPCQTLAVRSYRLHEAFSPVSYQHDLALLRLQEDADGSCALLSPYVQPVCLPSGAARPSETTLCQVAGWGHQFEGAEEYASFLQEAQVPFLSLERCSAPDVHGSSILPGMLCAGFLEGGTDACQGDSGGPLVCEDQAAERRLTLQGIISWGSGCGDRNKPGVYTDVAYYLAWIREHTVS
Description: (§1) In this example, the binding ability of coagulation factors PK, PKa, FXII, FXIIa, FIX, FIXa, FX, FXa, FVIIa, and Thrombin to antibodies at a series of diluted concentrations was analyzed using ELISA.

human FIX = human FIX (human, UniProt P00740 47-461); assay: ELISA, antibody dilution series
Description: as §1

human FIXa = human FIXa (human, UniProt P00740 47-191; P00740 227-461); assay: ELISA, antibody dilution series
Description: as §1

human FX = human FX (human, UniProt P00742 41-488); assay: ELISA, antibody dilution series
Description: as §1

human FXa = human FXa (human, UniProt P00742 41-179; P00742 235-488, limits assumed); assay: ELISA, antibody dilution series
Description: as §1

human FVIIa = target: T3, human FVIIa (human, UniProt P08709 61-212; P08709 213-466); assay: ELISA, antibody dilution series
T3 sequence (looked up) 1: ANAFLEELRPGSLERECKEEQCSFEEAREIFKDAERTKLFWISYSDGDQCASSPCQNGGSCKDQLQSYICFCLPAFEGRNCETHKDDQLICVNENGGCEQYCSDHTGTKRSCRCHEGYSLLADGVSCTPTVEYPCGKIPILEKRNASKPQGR
T3 sequence (looked up) 2: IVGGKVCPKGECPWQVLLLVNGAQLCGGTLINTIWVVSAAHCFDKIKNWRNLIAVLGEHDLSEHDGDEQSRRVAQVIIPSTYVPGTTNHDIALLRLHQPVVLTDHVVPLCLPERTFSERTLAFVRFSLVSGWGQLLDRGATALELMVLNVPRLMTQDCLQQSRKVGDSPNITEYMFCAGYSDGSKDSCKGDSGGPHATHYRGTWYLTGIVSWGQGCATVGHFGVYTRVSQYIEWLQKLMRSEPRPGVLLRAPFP
Description: as §1

human Thrombin = human Thrombin (human, UniProt P00734 328-363; P00734 364-622); assay: ELISA, antibody dilution series
Description: as §1

human PK = human PK (human, UniProt P03952 20-638); assay: ELISA, antibody dilution series
Description: as §1

[3] = target: T1, human Factor XIa, activated form of …; assay: SPR, BIAcore T200, antibody captured on Protein A chip, FXIa as analyte, 1:1 Langmuir fit
Description: (2) Sample testing conditions: The binding characteristics of FXIa and antibodies were preliminarily determined and evaluated in a manual mode. 10 nM was determined as the maximum analytical concentration of FXIa. […] During the sample analysis, the flow rate was set to be 30 μL/min, the binding time was 120 s, and the dissociation time was 600 s.
(3) Regeneration conditions: With reference to other experiments, preliminary determination and evaluation were performed in a manual mode. […] During the regeneration, the flow rate was set to be 30 μL/min, and the regeneration time was 30 s.
(4) Kinetic parameter determination: The experiment was carried out in a multi-cycle mode, in which the response signal took the analysis time as the horizontal coordinate and the response value as the vertical coordinate. The obtained data were fitted by BIAcore T200 analysis software, during which a 1:1 Langmuir binding model was used as a fitting model, so as to determine the kinetic constants such as an association rate constant, a dissociation rate constant, and an association-dissociation constant.

B1: anti-human FXIa full-length human monoclonal antibody 14624 (antibody, IgG1, V domains shown)
VH: QVQLVQSGAEVKKPGASVKVSCKVSGYTLTELSMHWVRQAPGKGLEWMGGFDPEDGETIYAQKFQGRVTMTEDTSTDTAYMELSSLRSEDTAVYYCATDRPVRGVIPYYYYYGMDVWGQGTLVTVSS
VL: QSALTQPPSASGTPGQTVTISCSGSRSNIGSRPVNWYQHLPGTAPKLLIYIDHQRPSGVPDRFSGSKSGTSASLAISGLQSDDEADYYCAAWDDSLDAYVFGTGTKVTVL
notes: Full-length IgG1 made in CHO cells
With B1 the EC50 [1] was 0.056 nM, the “IC50 (nM), inhibition of human FXIa hydrolysis of S-2366” value [2] was 47.3 nM and the binding result (human FXII) was “no binding”. B1: no binding (human FIX); no binding (human FIXa); no binding (human FX). B1: no binding (human FXa); no binding (human FVIIa); no binding (human Thrombin). For the same binder, the binding result (human PK) was “no binding”, the Kd [3] was 0.0231 nM and the koff [3] was 0.00245 s⁻¹. The kon [3] was 1.06e+08 M⁻¹ s⁻¹.
